Data on six substances can be found in US20130345115A1.

For test [1], the target named is (Δ1-28) H4 nucleosome (mononucleosome with FLAG-HA-tagged tailless human H4 lacking the first 28 amino acids) (human; human (293T cells)) (UniProt P62805). Description: MudPIT, co-purification.
Test [2] addresses Wild type H4 nucleosome (mononucleosome with FLAG-HA-tagged wild type human H4) (human; human (293T cells)) (UniProt P62805). Kind of test: MudPIT, co-purification.

In test [1], “damage-specific DNA binding protein 1, 127 kDa (from UniProt Q16531 2-1140)” came in with an amino acid coverage of 3.7% and a peptide count of 2 peptides. In test [2], this substance had an amino acid coverage of 5.4% and a peptide count of 3 peptides.
On the same counts, the results for “macroH2A1.1 and macroH2A1.2 (from UniProt O75367 1-369)” are 48.2%, 10 peptides, 55.1% and 11 peptides.
For the substance “histone cluster 1, H1e (HIST1H1E) (from UniProt P10412 2-219)”, the results for the amino acid coverage in test [1] and in test [2] were 11.8% and 6.2%, respectively. For the same substance, the figures for the peptide count in test [1] and in test [2] were 2 peptides and 1 peptides, respectively.
In the case of “poly (ADP-ribose) polymerase 1 (from UniProt P09874 2-1014) (enzyme)”, in test [1], the amino acid coverage came to 44.2% and the peptide count was 23 peptides. Further, in test [2], the amino acid coverage was found to be 41.3% and the peptide count was 21 peptides.
The like results for “remodeling and spacing factor 1 (from UniProt Q96T23 1-1441)” were, in that order, 11.7%, 10 peptides, 12.2% and 12 peptides.
For “H1 histone family, member 0 (H1F0) (from UniProt P07305 2-194)”, the amino acid coverage was determined as 16.2% in test [1] and 21.2% in test [2]. Further, the peptide count in test [1] is 2 peptides; in test [2], 3 peptides.
